# According to publication PMC6555819, “Comprehensive study of nuclear receptor DNA binding provides a revised framework for understanding receptor specificity”:
# How the values were obtained:
# VDR:RXRa = VDR:RXRa (Homo sapiens, UniProt P11473;P19793 full;full); assay: no ligand; PBM; 270 nM : 90 nM RXRa; PBS pH 7.4, 2% milk, 0.02% Triton X-100, 1 mM DTT, BSA, 0.4 mg/ml salmon testes DNA; conditions: tags: His kept;His cleaved; copies: 1;1; label: surface-attached array probe
# Procedure, shortened: (§1)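 Binding z-scores were set against random background probes. The data came from custom Agilent 4×180K protein-binding microarrays carrying double-stranded probes with 34-nt variable regions, incubated 1 h with ligand-free nuclear receptor dimers. Partner-specific antibodies detected binding, and scanned fluorescence was regression-normalized.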
# PPARa:RXRa = PPARa:RXRa (Homo sapiens, UniProt Q07869;P19793 full;full); assay: as above; conditions: tags: GST kept;His cleaved; copies: 1;1; label: surface-attached array probe
# Procedure, shortened: as §1
# RARa:RXRa = RARa:RXRa (Homo sapiens, UniProt P10276;P19793 full;full); assay: as above; conditions: tags: His kept;His cleaved; copies: 1;1; label: surface-attached array probe
# Procedure, shortened: as §1
# RXRa = RXRa (Homo sapiens, UniProt P19793); assay: no ligand; PBM; 180 nM; PBS pH 7.4, 2% milk, 0.02% Triton X-100, 1 mM DTT, BSA, 0.4 mg/ml salmon testes DNA; conditions: tags: His cleaved; chain copies: 2; label: surface-attached array probe
# RARb:RXRa = RARb:RXRa (Homo sapiens, UniProt P10826;P19793 full;full); assay: no ligand; PBM; 270 nM : 90 nM RXRa; PBS pH 7.4, 2% milk, 0.02% Triton X-100, 1 mM DTT, BSA, 0.4 mg/ml salmon testes DNA; conditions: tags: His kept;His cleaved; copies: 1;1; label: surface-attached array probe
# Procedure, shortened: as §1
# LXRb:RXRa = LXRb:RXRa (Homo sapiens, UniProt P55055;P19793 full;full); assay: as above; conditions: tags: His kept;His cleaved; copies: 1;1; label: surface-attached array probe
# Procedure, shortened: as §1
# FXR:RXRa = FXR:RXRa (Homo sapiens, UniProt Q96RI1;P19793 full;full); assay: as above; conditions: tags: His kept;His cleaved; copies: 1;1; label: surface-attached array probe
# Procedure, shortened: as §1
# RARg:RXRa = RARg:RXRa (Homo sapiens, UniProt P13631;P19793 full;full); assay: as above; conditions: tags: His kept;His cleaved; copies: 1;1; label: surface-attached array probe
# Procedure, shortened: as §1
# Sequence of RARg:RXRa (P13631 whole entry, chain 1 of 2): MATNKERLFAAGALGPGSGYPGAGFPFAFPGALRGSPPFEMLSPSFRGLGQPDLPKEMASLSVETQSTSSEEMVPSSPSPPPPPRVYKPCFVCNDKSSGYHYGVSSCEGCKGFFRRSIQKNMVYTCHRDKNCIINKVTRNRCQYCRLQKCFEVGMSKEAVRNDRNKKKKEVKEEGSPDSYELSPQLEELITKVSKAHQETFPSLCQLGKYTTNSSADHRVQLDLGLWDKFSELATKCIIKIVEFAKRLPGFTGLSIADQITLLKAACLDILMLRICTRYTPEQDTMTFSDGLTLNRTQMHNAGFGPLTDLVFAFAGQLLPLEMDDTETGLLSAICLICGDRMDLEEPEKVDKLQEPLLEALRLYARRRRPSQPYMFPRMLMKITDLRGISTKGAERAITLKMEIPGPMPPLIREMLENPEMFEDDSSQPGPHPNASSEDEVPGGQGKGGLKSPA
# Sequence of RARg:RXRa (P19793 whole entry, chain 2 of 2): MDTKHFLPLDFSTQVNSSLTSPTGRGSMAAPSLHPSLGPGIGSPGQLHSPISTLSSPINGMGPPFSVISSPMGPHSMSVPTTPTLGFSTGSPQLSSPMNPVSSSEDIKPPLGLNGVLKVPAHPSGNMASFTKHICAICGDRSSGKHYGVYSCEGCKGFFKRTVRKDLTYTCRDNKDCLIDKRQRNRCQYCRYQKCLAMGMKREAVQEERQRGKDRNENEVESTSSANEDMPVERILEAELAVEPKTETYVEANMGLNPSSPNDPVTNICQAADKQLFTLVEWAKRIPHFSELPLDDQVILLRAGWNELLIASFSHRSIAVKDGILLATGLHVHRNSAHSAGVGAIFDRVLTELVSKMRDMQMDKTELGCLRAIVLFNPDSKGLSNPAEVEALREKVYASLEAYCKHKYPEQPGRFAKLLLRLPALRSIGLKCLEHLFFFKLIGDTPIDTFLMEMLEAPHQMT
# Sequence of PPARa:RXRa (Q07869 whole entry, chain 1 of 2): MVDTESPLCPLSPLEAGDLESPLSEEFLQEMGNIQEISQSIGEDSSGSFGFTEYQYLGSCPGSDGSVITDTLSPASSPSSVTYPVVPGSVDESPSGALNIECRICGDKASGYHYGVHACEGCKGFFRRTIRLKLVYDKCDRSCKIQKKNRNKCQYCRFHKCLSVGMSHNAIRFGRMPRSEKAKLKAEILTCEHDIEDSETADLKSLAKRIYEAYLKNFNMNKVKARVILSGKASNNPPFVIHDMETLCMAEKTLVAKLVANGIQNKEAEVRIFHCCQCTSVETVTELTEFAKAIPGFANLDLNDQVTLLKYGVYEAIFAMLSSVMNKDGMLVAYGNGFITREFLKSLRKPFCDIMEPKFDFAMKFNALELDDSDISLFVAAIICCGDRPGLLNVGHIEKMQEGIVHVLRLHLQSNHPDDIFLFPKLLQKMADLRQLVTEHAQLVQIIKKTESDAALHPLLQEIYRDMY
# Sequence of PPARa:RXRa (P19793 whole entry, chain 2 of 2): as the sequence (P19793 whole entry, chain 2 of 2) above
# Sequence of RXRa (P19793 whole entry): as the sequence (P19793 whole entry, chain 2 of 2) above
# Sequence of RARa:RXRa (P10276 whole entry, chain 1 of 2): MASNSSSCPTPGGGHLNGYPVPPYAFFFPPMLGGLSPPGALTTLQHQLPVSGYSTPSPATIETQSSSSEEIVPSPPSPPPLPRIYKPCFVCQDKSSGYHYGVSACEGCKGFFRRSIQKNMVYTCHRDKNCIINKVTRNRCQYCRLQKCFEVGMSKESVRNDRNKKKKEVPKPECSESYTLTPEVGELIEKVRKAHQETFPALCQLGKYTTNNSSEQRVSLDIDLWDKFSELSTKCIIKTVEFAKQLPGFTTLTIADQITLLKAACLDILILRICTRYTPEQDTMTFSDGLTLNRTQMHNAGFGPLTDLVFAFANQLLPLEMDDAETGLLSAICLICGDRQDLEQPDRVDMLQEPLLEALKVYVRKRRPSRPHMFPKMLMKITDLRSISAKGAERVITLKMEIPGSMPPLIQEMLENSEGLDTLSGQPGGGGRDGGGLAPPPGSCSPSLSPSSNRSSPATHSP
# Sequence of RARa:RXRa (P19793 whole entry, chain 2 of 2): as the sequence (P19793 whole entry, chain 2 of 2) above
# Sequence of VDR:RXRa (P11473 whole entry, chain 1 of 2): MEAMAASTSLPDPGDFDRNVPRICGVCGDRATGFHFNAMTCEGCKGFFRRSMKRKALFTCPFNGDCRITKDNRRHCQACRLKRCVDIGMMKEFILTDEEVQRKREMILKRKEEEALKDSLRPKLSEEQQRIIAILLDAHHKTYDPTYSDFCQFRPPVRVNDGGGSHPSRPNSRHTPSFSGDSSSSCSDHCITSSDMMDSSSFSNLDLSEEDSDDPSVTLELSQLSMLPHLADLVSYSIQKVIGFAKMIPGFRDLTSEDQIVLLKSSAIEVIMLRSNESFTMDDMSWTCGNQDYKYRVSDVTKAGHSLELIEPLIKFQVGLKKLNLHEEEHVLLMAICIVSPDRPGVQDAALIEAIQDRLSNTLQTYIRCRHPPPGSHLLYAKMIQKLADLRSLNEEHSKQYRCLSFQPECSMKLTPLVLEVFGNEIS
# Sequence of VDR:RXRa (P19793 whole entry, chain 2 of 2): as the sequence (P19793 whole entry, chain 2 of 2) above
# Sequence of LXRb:RXRa (P55055 whole entry, chain 1 of 2): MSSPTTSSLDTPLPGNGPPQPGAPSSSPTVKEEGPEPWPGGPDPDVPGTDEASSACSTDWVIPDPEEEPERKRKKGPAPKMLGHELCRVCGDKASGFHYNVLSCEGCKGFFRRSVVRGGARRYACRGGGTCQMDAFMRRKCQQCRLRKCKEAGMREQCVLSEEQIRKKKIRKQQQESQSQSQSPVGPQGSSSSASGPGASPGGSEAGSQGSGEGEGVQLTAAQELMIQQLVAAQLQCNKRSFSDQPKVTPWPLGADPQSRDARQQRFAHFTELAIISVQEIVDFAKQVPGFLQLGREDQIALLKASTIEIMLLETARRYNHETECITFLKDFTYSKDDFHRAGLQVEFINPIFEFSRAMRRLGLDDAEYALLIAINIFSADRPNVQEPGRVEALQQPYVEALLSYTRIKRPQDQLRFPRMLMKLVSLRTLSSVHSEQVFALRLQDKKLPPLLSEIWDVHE
# Sequence of LXRb:RXRa (P19793 whole entry, chain 2 of 2): as the sequence (P19793 whole entry, chain 2 of 2) above
# Sequence of FXR:RXRa (Q96RI1 whole entry, chain 1 of 2): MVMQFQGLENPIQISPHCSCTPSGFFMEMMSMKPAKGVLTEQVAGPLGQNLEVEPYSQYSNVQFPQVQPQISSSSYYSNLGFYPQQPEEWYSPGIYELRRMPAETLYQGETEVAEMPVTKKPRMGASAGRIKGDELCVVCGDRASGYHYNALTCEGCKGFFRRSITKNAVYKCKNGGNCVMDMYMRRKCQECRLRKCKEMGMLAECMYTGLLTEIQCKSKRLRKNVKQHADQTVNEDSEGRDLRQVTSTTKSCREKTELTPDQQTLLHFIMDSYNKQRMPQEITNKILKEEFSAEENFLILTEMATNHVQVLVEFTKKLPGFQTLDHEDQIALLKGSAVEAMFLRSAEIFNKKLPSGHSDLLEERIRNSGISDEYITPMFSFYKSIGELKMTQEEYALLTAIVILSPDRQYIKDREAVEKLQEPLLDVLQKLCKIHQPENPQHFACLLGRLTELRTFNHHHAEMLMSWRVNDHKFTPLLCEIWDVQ
# Sequence of FXR:RXRa (P19793 whole entry, chain 2 of 2): as the sequence (P19793 whole entry, chain 2 of 2) above
# Sequence of RARb:RXRa (P10826 whole entry, chain 1 of 2): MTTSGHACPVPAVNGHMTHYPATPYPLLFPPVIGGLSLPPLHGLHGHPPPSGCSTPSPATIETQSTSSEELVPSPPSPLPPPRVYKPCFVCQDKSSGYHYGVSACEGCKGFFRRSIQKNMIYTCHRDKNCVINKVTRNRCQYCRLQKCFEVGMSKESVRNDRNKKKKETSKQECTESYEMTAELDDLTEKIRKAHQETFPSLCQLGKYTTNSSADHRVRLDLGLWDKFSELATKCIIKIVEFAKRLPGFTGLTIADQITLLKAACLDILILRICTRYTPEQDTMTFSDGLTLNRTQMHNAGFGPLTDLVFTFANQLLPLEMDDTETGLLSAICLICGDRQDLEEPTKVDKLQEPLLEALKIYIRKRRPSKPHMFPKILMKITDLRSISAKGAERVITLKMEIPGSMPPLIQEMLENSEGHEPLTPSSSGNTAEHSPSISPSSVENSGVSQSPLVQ
# Sequence of RARb:RXRa (P19793 whole entry, chain 2 of 2): as the sequence (P19793 whole entry, chain 2 of 2) above
Binder,binding signal (VDR:RXRa),binding signal (PPARa:RXRa),binding signal (RARa:RXRa),binding signal (RXRa),binding signal (RARb:RXRa),binding signal (LXRb:RXRa),binding signal (FXR:RXRa),binding signal (RARg:RXRa)
NRC3_random_hg19_281_o1 (dsDNA) DNA 1: GCTTGTTGCTTCTGTTCTACGCCAGTGACTTGGAAAGCGATTGACAGCGTAGAATGAAGG DNA 2: CCTTCATTCTACGCTGTCAATCGCTTTCCAAGTCACTGGCGTAGAACAGAAGCAACAAGC,-0.16 PBM z-score against 500 random probes,-0.08 PBM z-score against 500 random probes,-0.05 PBM z-score against 500 random probes,–,–,–,–,–
NRC3_wobSeed85_DR3_C7A_o1 (dsDNA) DNA 1: GCCGTCAAAGGTCAGAGAGGTCAGTGAATGCCGAGTGCGATTGACAGCGTAGAATGAAGG DNA 2: CCTTCATTCTACGCTGTCAATCGCACTCGGCATTCACTGACCTCTCTGACCTTTGACGGC,7.92 PBM z-score against 500 random probes,–,7.18 PBM z-score against 500 random probes,7.98 PBM z-score against 500 random probes,5.97 PBM z-score against 500 random probes,5.98 PBM z-score against 500 random probes,8.03 PBM z-score against 500 random probes,7.93 PBM z-score against 500 random probes
NRC3_wobSeed2_DR0_G17C_o1 (dsDNA) DNA 1: GCCCTAGTTGGTCAAGCTCACACACGCTATAGGTACGCGATTGACAGCGTAGAATGAAGG DNA 2: CCTTCATTCTACGCTGTCAATCGCGTACCTATAGCGTGTGTGAGCTTGACCAACTAGGGC,–,–,0.43 PBM z-score against 500 random probes,0.35 PBM z-score against 500 random probes,–,–,–,–
NRC3_wobSeed61_DR2_C7A_o1 (dsDNA) DNA 1: GCCGTCAAAGGTCAGCAGGTCAGTGAAAGCGACGTGGCGATTGACAGCGTAGAATGAAGG DNA 2: CCTTCATTCTACGCTGTCAATCGCCACGTCGCTTTCACTGACCTGCTGACCTTTGACGGC,–,6.49 PBM z-score against 500 random probes,7.38 PBM z-score against 500 random probes,7.98 PBM z-score against 500 random probes,6.16 PBM z-score against 500 random probes,–,8.26 PBM z-score against 500 random probes,8.13 PBM z-score against 500 random probes
NRC3_random_hg19_127_o1 (dsDNA) DNA 1: GCATGAGGTACTGATACATGCTACAATGTGTATGTAGCGATTGACAGCGTAGAATGAAGG DNA 2: CCTTCATTCTACGCTGTCAATCGCTACATACACATTGTAGCATGTATCAGTACCTCATGC,-0.33 PBM z-score against 500 random probes,–,-0.55 PBM z-score against 500 random probes,–,–,–,–,–
NRC3_random_hg19_429_o1 (dsDNA) DNA 1: GCTTAGTGAAGTGAAGGTTGCTTTCTACTCATTTGAGCGATTGACAGCGTAGAATGAAGG DNA 2: CCTTCATTCTACGCTGTCAATCGCTCAAATGAGTAGAAAGCAACCTTCACTTCACTAAGC,–,–,0.08 PBM z-score against 500 random probes,-0.28 PBM z-score against 500 random probes,–,–,–,–
NRC3_random_hg19_457_o1 (dsDNA) DNA 1: GCAGCTGCATCCATGTTGCTGCAAAGGACATGACTTGCGATTGACAGCGTAGAATGAAGG DNA 2: CCTTCATTCTACGCTGTCAATCGCAAGTCATGTCCTTTGCAGCAACATGGATGCAGCTGC,-0.67 PBM z-score against 500 random probes,–,-0.52 PBM z-score against 500 random probes,-0.65 PBM z-score against 500 random probes,–,–,-1.02 PBM z-score against 500 random probes,-0.13 PBM z-score against 500 random probes
NRC3_wobSeed45_DR1_A20G_o1 (dsDNA) DNA 1: GCTGTCAAAGTTCAAAGGTGACGTAAGTATCCACACGCGATTGACAGCGTAGAATGAAGG DNA 2: CCTTCATTCTACGCTGTCAATCGCGTGTGGATACTTACGTCACCTTTGAACTTTGACAGC,–,–,7.89 PBM z-score against 500 random probes,8.27 PBM z-score against 500 random probes,–,–,7.78 PBM z-score against 500 random probes,–
NRC3_random_hg19_84_o1 (dsDNA) DNA 1: GCGTAAGACACCTTCCTAGGAAGAGAACAGCAGAATGCGATTGACAGCGTAGAATGAAGG DNA 2: CCTTCATTCTACGCTGTCAATCGCATTCTGCTGTTCTCTTCCTAGGAAGGTGTCTTACGC,–,–,-0.2 PBM z-score against 500 random probes,-0.13 PBM z-score against 500 random probes,–,–,-0.49 PBM z-score against 500 random probes,–
NRC3_wobSeed10_DR0_G6A_o1 (dsDNA) DNA 1: GCATCAAAAGGTCGAGGTGAGTATAGAGAAAGGGAAGCGATTGACAGCGTAGAATGAAGG DNA 2: CCTTCATTCTACGCTGTCAATCGCTTCCCTTTCTCTATACTCACCTCGACCTTTTGATGC,–,–,3.83 PBM z-score against 500 random probes,–,–,3.24 PBM z-score against 500 random probes,–,–
NRC3_random_hg19_386_o1 (dsDNA) DNA 1: GCTCCCTTCCCTTCCCTTCCCTTCCCACAACCACTGGCGATTGACAGCGTAGAATGAAGG DNA 2: CCTTCATTCTACGCTGTCAATCGCCAGTGGTTGTGGGAAGGGAAGGGAAGGGAAGGGAGC,–,–,0.49 PBM z-score against 500 random probes,-0.1 PBM z-score against 500 random probes,–,–,–,-0.29 PBM z-score against 500 random probes
NRC3_wobSeed77_DR3_G19C_o1 (dsDNA) DNA 1: GCACTTACGGGTCAACGACGTTATAGCACGCGTATAGCGATTGACAGCGTAGAATGAAGG DNA 2: CCTTCATTCTACGCTGTCAATCGCTATACGCGTGCTATAACGTCGTTGACCCGTAAGTGC,–,–,4.03 PBM z-score against 500 random probes,–,–,3.79 PBM z-score against 500 random probes,–,–
NRC3_wobSeed42_DR1_G22A_o1 (dsDNA) DNA 1: GCTATACAGGGTCAAAGGCCAAAGTACGAATGTCGAGCGATTGACAGCGTAGAATGAAGG DNA 2: CCTTCATTCTACGCTGTCAATCGCTCGACATTCGTACTTTGGCCTTTGACCCTGTATAGC,–,6.61 PBM z-score against 500 random probes,7.1 PBM z-score against 500 random probes,8.11 PBM z-score against 500 random probes,–,–,7.75 PBM z-score against 500 random probes,–
NRC3_wobSeed36_DR1_G12T_o1 (dsDNA) DNA 1: GCCCGACTGGGTCAAAGGTTACCATACTCAGTACGAGCGATTGACAGCGTAGAATGAAGG DNA 2: CCTTCATTCTACGCTGTCAATCGCTCGTACTGAGTATGGTAACCTTTGACCCAGTCGGGC,–,6.73 PBM z-score against 500 random probes,7.7 PBM z-score against 500 random probes,7.96 PBM z-score against 500 random probes,–,–,–,–
NRC3_wobSeed36_DR1_T8G_o1 (dsDNA) DNA 1: GCCCGACGGGGGCAAAGGTTACCATACTCAGTACGAGCGATTGACAGCGTAGAATGAAGG DNA 2: CCTTCATTCTACGCTGTCAATCGCTCGTACTGAGTATGGTAACCTTTGCCCCCGTCGGGC,–,–,7.46 PBM z-score against 500 random probes,7.82 PBM z-score against 500 random probes,–,5.85 PBM z-score against 500 random probes,–,–
NRC3_random_hg19_37_o1 (dsDNA) DNA 1: GCTTTGCCAGGTGCGGTGGCTCAATGCCTGTAATCCGCGATTGACAGCGTAGAATGAAGG DNA 2: CCTTCATTCTACGCTGTCAATCGCGGATTACAGGCATTGAGCCACCGCACCTGGCAAAGC,–,–,-0.74 PBM z-score against 500 random probes,–,–,-1.03 PBM z-score against 500 random probes,–,–
NRC3_random_hg19_476_o1 (dsDNA) DNA 1: GCACAGCAAAGAGGCCAGCATGGCTAGAGCAGATCAGCGATTGACAGCGTAGAATGAAGG DNA 2: CCTTCATTCTACGCTGTCAATCGCTGATCTGCTCTAGCCATGCTGGCCTCTTTGCTGTGC,–,–,-0.83 PBM z-score against 500 random probes,-0.29 PBM z-score against 500 random probes,–,–,–,–
NRC3_wobSeed125_DR5_C8G_o1 (dsDNA) DNA 1: GCCCTTAGGGGTCACTGACAGGTTATAGCATTTGGAGCGATTGACAGCGTAGAATGAAGG DNA 2: CCTTCATTCTACGCTGTCAATCGCTCCAAATGCTATAACCTGTCAGTGACCCCTAAGGGC,6.5 PBM z-score against 500 random probes,6.95 PBM z-score against 500 random probes,7.93 PBM z-score against 500 random probes,9.59 PBM z-score against 500 random probes,5.48 PBM z-score against 500 random probes,6.07 PBM z-score against 500 random probes,8.59 PBM z-score against 500 random probes,8.18 PBM z-score against 500 random probes
NRC3_wobSeed130_DR5_C13G_o1 (dsDNA) DNA 1: GCCTCGAAAGGTGGTGCTCAGGTGAGTATACCAAACGCGATTGACAGCGTAGAATGAAGG DNA 2: CCTTCATTCTACGCTGTCAATCGCGTTTGGTATACTCACCTGAGCACCACCTTTCGAGGC,–,0.16 PBM z-score against 500 random probes,0.34 PBM z-score against 500 random probes,-0.07 PBM z-score against 500 random probes,–,–,–,–
NRC3_wobSeed34_DR1_G20C_o1 (dsDNA) DNA 1: GCATCGAAAGGTCGAAGGTCAGTATACCCACCCGAAGCGATTGACAGCGTAGAATGAAGG DNA 2: CCTTCATTCTACGCTGTCAATCGCTTCGGGTGGGTATACTGACCTTCGACCTTTCGATGC,–,–,7.04 PBM z-score against 500 random probes,7.85 PBM z-score against 500 random probes,–,–,–,–
NRC3_random_hg19_205_o1 (dsDNA) DNA 1: GCGAATCATCATGAGCTCAGAATGATCCTAGGCAGAGCGATTGACAGCGTAGAATGAAGG DNA 2: CCTTCATTCTACGCTGTCAATCGCTCTGCCTAGGATCATTCTGAGCTCATGATGATTCGC,–,–,-0.66 PBM z-score against 500 random probes,–,–,-0.63 PBM z-score against 500 random probes,–,–
